Data taken from patent publication US20240425583A1, “METHODS AND COMPOSITIONS RELATED TO MCL-1 AND BIM HETERODIMER ANTIBODIES” (priority 2021, published 2024).

How the values were obtained:
[1] = type: physicochemical
Experimental: FIG. 2 is a graph showing the selective binding of the MCL-1/BIM heterodimer (HSMCB) antibody to the MCL-1/BIM heterodimer, and the stability of this antibody at 4° C. for about 2 months. Each line in the graph follows the order in the legend (i.e., the top line is for sample 5-01-20b, the next line is for 5-22-20b, the next line is for 5-29b; this pattern is throughout the entire graph). The antibody in this figure is an antibody having CDRs selected from SEQ ID NO: 9, SEQ ID NO: 10, SEQ ID NO: 11, SEQ ID NO: 12, SEQ ID NO: 13, SEQ ID NO: 14, and having a variable heavy chain selected from SEQ ID NO: 15, and a variable light chain selected from SEQ ID NO: 16. […]

[2] = test system: FFPE breast cancer patient biopsy (BCa_01 NV401); assay: IHC staining of serial sections from a FFPE breast cancer patient biopsy; design: species or system human; conditions: compared with HSBXB, 10× objective, FIG. 8
Description: The image on the left side of FIG. 8 is of an HSMCB antibody having CDRs selected from SEQ ID NO: 9, SEQ ID NO: 10, SEQ ID NO: 11, SEQ ID NO: 12, SEQ ID NO: 13, SEQ ID NO: 14, and having a variable heavy chain selected from SEQ ID NO: 15, and a variable light chain selected from SEQ ID NO: 16.
In these experiments, PDX stains were used for image analysis software from Leica and Halo were compared for quantitative analysis.

B1: HSMCB (SEQ ID NO: 15, SEQ ID NO: 16): MCL-1/BIM heterodimer antibody, CDRs SEQ ID NO: 9-14, variable heavy chain SEQ ID NO: 15, variable light chain SEQ ID NO: 16 (antibody, V domains shown)
VH: MDWIWIMLHLLAAATGLQSQVHLQQSGSELRSPGSSVKLSCKDFDSEVFPIAYMSWVRQKPGHGFEWIGDILPSIGRTIYGEKFEDKATLDADTVSNTAYLELNSLTSEDSAIYYCARQDTYYAMDYWGQGTSVTVSS
VL: MHFQVQIFSFLLISASVIMSRGQIVLTQSPAIMSASPGEKVTITCSASSSVSYMHWVQQKPGTSPKLWIYSTSNLASGVPARFRGSGSGTSYSLTISRMEAEDAATYYCQQRSSYPYTFGGGTKLEIK
- stability of the antibody at 4° C. [1]: about 2 months
- IHC reactivity with tissue sample [2]: higher reactivity
